Test results reported in publication PMC3115872, “Characterization of the expression, promoter activity and molecular architecture of fibin” (BMC Biochemistry, 2011).

Target: the molecule itself
Experiment: non-reducing SDS-PAGE with Western blot; lysates of transfected COS-7 cells harvested after 72 h; equal amounts of protein separated by SDS-PAGE under non-reducing conditions; immunoblot with anti-fibin-2 antibody

B1: fibin (mouse), wild type (natural protein, UniProt Q9CQS3 19-217, looked up)
chain: YFDGPLYPEMSNGTLHHYFVPDGDYEENDDPEKCQLLFRVSDRRRCSQGEGGQASSLLSLTLREEFTVLGRQVEDAGRVLEGISKSISYDLDGEESYGKYLRRESHQIGDAYSNSDKSLTELESKFKQGQEQDSRQESRLNEDFLGMLVHTRSLLKETLDISVGLRDKYELLAHTIRSHGTRLGRLKSDYLEGGAQKTG
modifications: N-glycosylated at Asn30
notes: mouse fibin; also called WT fibin; wild-type fibin; source: COS-7, transfected (pcDps vector), in lysate
stoichiometry N: 2
